The supplement of paper PMC10567573
± gives the standard deviation.

Experiment: protein stability index of a GFP-peptide fusion (GPS, HEK-293T) (PSI 1-6); higher = more stable
[1] = treatment: DMSO, c terminus: a fixed tail appended
[2] = treatment: MLN4924 1 uM, 8 h, c terminus: a fixed tail appended
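Note: 24-mer peptide tiles fused after GFP, lentivirally expressed, FACS-sorted into six equal bins by GFP/DsRed ratio, decoded by Illumina sequencing, PSI is the read-weighted mean bin number.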

Sequence: LVLKAHHDIVRFLVQLDDYRFASA [WDR41]
- protein stability index [1]: 2.96 ± 0.52
- protein stability index [2]: 2.96 ± 0.67

Sequence: EVKIRDWHLKQSPASPERDYSPYY [KRT13]
- protein stability index [1]: 3.34 ± 0.38
- protein stability index [2]: 3.35 ± 0.47

Sequence: NVDDPTGAHSNAPITAHAEVEVVE [CSNK1G1]
- protein stability index [1]: 5.35 ± 0.61
- protein stability index [2]: 5.39 ± 0.47

Sequence: TSTGFDRHTSPVFSPANPESSMED [BCL2L13]
- protein stability index [1]: 5.39 ± 0.28
- protein stability index [2]: 5.16 ± 0.072

Sequence: SLKLASSELERLIVPNSNGVITTT [JUNB]
- protein stability index [1]: 3.24 ± 0.41
- protein stability index [2]: 3.4 ± 0.54

Sequence: LTADSRKSHLIFPQPNYADTLISQ [PCDHGA10]
- protein stability index [1]: 3.17 ± 0.17
- protein stability index [2]: 3.11 ± 0.27

Sequence: LQIELGKCKAEHDQLLLNYAKKES [LMNB1]
- protein stability index [1]: 3.29 ± 0.24
- protein stability index [2]: 3.33 ± 0.33

Sequence: KIFVENLRRQKSLRLEWETQQELR [IQUB]
- protein stability index [1]: 2.69 ± 0.43
- protein stability index [2]: 2.93 ± 0.46

Sequence: YERLARILLQEIPIRSISLRSCYF [FBXO39]
- protein stability index [1]: 2.92 ± 0.28
- protein stability index [2]: 2.56 ± 0.26

Sequence: SKSGYLRYSCESRIRSYLREVSSY [DFFB]
- protein stability index [1]: 2.1 ± 0.17
- protein stability index [2]: 2.34 ± 0.37

Sequence: SLFSPVTEDSPLGTVVALLNVHDL [PCDHGA10]
- protein stability index [1]: 2.31 ± 0.2
- protein stability index [2]: 2.32 ± 0.3

Sequence: FQASNPYLPTRGGTTMASGGRFRC [TRIM55]
- protein stability index [1]: 2.54 ± 0.65
- protein stability index [2]: 3.14 ± 0.7

Sequence: WNDAPCDKTFLFICKRPYVPSEP [CD207]
- protein stability index (treatment: DMSO, c terminus: native): 1.99 ± 0.96
- protein stability index (treatment: MLN4924 1 uM, 8 h, c terminus: native): 2.13 ± 0.13

Sequence: RRDCMWSGFSARERLERAVSDRLA [MYCL]
- protein stability index [1]: 3.31 ± 0.23
- protein stability index [2]: 3.4 ± 0.18

Sequence: LLLASGLVITDFFGHLINGAIAVF [PTGFR]
- protein stability index [1]: 3.29 ± 0.72
- protein stability index [2]: 3.19 ± 0.86

Sequence: VSPGVLVLLAVLPVLLLQITVGLV [MOG]
- protein stability index [1]: 2.92 ± 0.39
- protein stability index [2]: 2.96 ± 0.51

Sequence: GLLQGTSAETSGGLLICLPREQAA [SEPHS2]
- protein stability index [1]: 3.07 ± 0.16
- protein stability index [2]: 3.29 ± 0.18

Sequence: QAGPSPAPPTPPEEEDLRRRLKYF [MCOLN1]
- protein stability index [1]: 4.91 ± 0.14
- protein stability index [2]: 4.99 ± 0.17

Sequence: GRYRDARMNDLHYLNLDTWEWNEL [KLHDC2]
- protein stability index [1]: 2.86 ± 0.24
- protein stability index [2]: 2.88 ± 0.25

Sequence: DFKDFYPAIADLFAESLQCKVDCE [P3H4]
- protein stability index [1]: 2.84 ± 0.4
- protein stability index [2]: 3.16 ± 0.62

Sequence: LSALLQFGVTYLEDYSAEYIIQQG [BCL2L13]
- protein stability index [1]: 2.9 ± 0.42
- protein stability index [2]: 2.43 ± 0.55

Sequence: KEMTQKLEALHLEALCEEDLLLWI [DENND6A]
- protein stability index [1]: 2.23 ± 0.28
- protein stability index [2]: 2.26 ± 0.32

Sequence: PFSSVTEEELNFEKGETMEVIEKP [NCK2]
- protein stability index [1]: 5.38 ± 0.22
- protein stability index [2]: 5.42 ± 0.28

Sequence: RQNSAPARMLSSNERDSSEPGNFI [CDC25A]
- protein stability index [1]: 5.54 ± 0.31
- protein stability index [2]: 5.45 ± 0.14

Sequence: KCEQPFFWNIKQMWDTKTLGLRQH [WDFY1]
- protein stability index [1]: 2.12 ± 0.17
- protein stability index [2]: 2.38 ± 0.27

Sequence: RVEASHLTTSQERELGIRQRDEQL [FBF1]
- protein stability index [1]: 4.91 ± 0.22
- protein stability index [2]: 5.13 ± 0.22

Sequence: SEMEEEKRQAVNKAVANMQGEMDR [ZMYND11]
- protein stability index [1]: 5.41 ± 0.25
- protein stability index [2]: 5.42 ± 0.29

Sequence: RYPTISMVKPLLHMLLNTTLNIKE [ZBED1]
- protein stability index [1]: 2.83 ± 0.58
- protein stability index [2]: 3.37 ± 0.72

Sequence: NSEVYLPNINKISMQAVLDYLYTK [RHOBTB1]
- protein stability index [1]: 2.17 ± 0.29
- protein stability index [2]: 2.35 ± 0.16

Sequence: LLSILPSLLGLLSFPRNNISYLVL [JAGN1]
- protein stability index [1]: 3.155 ± 0.027
- protein stability index [2]: 3.1 ± 0.43

Sequence: LSSAPSSRAEPIRTTVFQYPVGWP [ZMAT5]
- protein stability index [1]: 2.86 ± 0.22
- protein stability index [2]: 2.94 ± 0.19

Sequence: HERGLKLHQTIYNQACKLLSDDYE [INTS4]
- protein stability index [1]: 3.18 ± 0.32
- protein stability index [2]: 3.47 ± 0.47

Sequence: SSFNFFVFFFIFFVQDVLFVLQAI [SCAMP3]
- protein stability index [1]: 3.17 ± 0.26
- protein stability index [2]: 3.18 ± 0.28

Sequence: SRRSYDDQLRSGSPPKSPRTTVHD [DNAJC4]
- protein stability index [1]: 4.89 ± 0.31
- protein stability index [2]: 4.98 ± 0.23

Sequence: MTVEEIYKDRQKFSEQVFKVASSD [FLOT1]
- protein stability index [1]: 3.83 ± 0.21
- protein stability index [2]: 3.61 ± 0.31

Sequence: GSEVYRMLREPAEPVAAEPKQSGS [PDLIM4]
- protein stability index [1]: 5.12 ± 0.25
- protein stability index [2]: 5.03 ± 0.22

Sequence: QGTELWVAERGTTQGCHPAWEPRS [ZNF8]
- protein stability index [1]: 3.24 ± 0.16
- protein stability index [2]: 3.1 ± 0.27

Sequence: NSSGDFSQAHSTLKLANHQRPVSR [TRAF3IP2]
- protein stability index [1]: 4.43 ± 0.32
- protein stability index [2]: 4.63 ± 0.38

Sequence: MSSVQQQPPPPRRVTNVGSLLLTP [WASL]
- protein stability index [1]: 3.7 ± 0.28
- protein stability index [2]: 3.75 ± 0.3

Sequence: TSVDHDRAPVVGVRVNVLLSRYLI [DLC1]
- protein stability index [2]: 3.12 ± 1.8

Sequence: PAGFRVSTLGTLQPPPAPPKKIMP [PPFIA4]
- protein stability index [1]: 4.14 ± 0.42
- protein stability index [2]: 4.07 ± 0.43

Sequence: LNHGASVNNTTLTNSTPLRAACFD [FEM1C]
- protein stability index [1]: 3.98 ± 0.31
- protein stability index [2]: 3.94 ± 0.14

Sequence: AEKSGEATDGARPQALPEPMQESK [CHGA]
- protein stability index [1]: 5.47 ± 0.3
- protein stability index [2]: 5.48 ± 0.22

Sequence: TIQVHRRYWRSLRVMKVEDREGPS [HDAC6]
- protein stability index [1]: 2.31 ± 0.21
- protein stability index [2]: 3.14 ± 0.34

Sequence: IRLMQRCWQGDPRVRPTFQEITSE [RIPK4]
- protein stability index [1]: 2.798 ± 0.002
- protein stability index [2]: 2.78 ± 0.45

Sequence: LLFSLTQFSVVSVVAYLALAALSA [RTN1]
- protein stability index [1]: 3.4 ± 0.54
- protein stability index [2]: 3.24 ± 0.058

Sequence: ADIFRIYAPEAPYTSPDKLKDIFM [PDS5B]
- protein stability index [1]: 2.06 ± 0.11
- protein stability index [2]: 2.1 ± 0.21

Sequence: AGEVVCEAIKNEMNVMLKSSPVDL [IMPA1]
- protein stability index [1]: 3.67 ± 0.91
- protein stability index [2]: 4.11 ± 0.25

Sequence: PAEGEGRLGRCMRRLRDMVERPHS [KCNG1]
- protein stability index [1]: 4.17 ± 0.14
- protein stability index [2]: 4.11 ± 0.35

Sequence: LEAAEALLTLRNSAQAPPDSISLH [DMRTC1]
- protein stability index [1]: 4.42 ± 0.18
- protein stability index [2]: 4.27 ± 0.25

Sequence: VSVFIGVLIDLWKITKVMDVRLDR [CLPTM1]
- protein stability index [1]: 3.19 ± 0.1
- protein stability index [2]: 2.97 ± 0.35

Sequence: IPHTHLLATLDPLALDREPPPHLL [WDR88]
- protein stability index [1]: 3.23 ± 0.12
- protein stability index [2]: 3.26 ± 0.14

Sequence: MKMEEAVGKVEELIESEAPPKASE [C18orf25]
- protein stability index [1]: 5.59 ± 0.15
- protein stability index [2]: 5.48 ± 0.57

Sequence: FTFLRPLSVQQPTALALEPDAIRS [PCDHGC5]
- protein stability index [1]: 2.89 ± 0.3
- protein stability index [2]: 3.03 ± 0.31

Sequence: FLCGRALTSDLYAPMVAGALARLG [SLC25A39]
- protein stability index [1]: 2.85 ± 0.26
- protein stability index [2]: 3.02 ± 0.64

Sequence: LALYVLFLADEEFDVVVCDQVSAC [ALG2]
- protein stability index [1]: 2.92 ± 0.44
- protein stability index [2]: 2.59 ± 0.59

Sequence: YSQGRLSEAEEALYLIAKRNRKLK [SLC22A15]
- protein stability index [1]: 2.81 ± 0.2
- protein stability index [2]: 3 ± 0.063

Sequence: PPPNRMYPPPPPALPSSAPSGPPP [WASL]
- protein stability index [1]: 5.01 ± 0.3
- protein stability index [2]: 5.08 ± 0.13

Sequence: CLSTWLLHFIATNYLIFSQKPEFQ [RHOBTB3]
- protein stability index [1]: 3.09 ± 0.19
- protein stability index [2]: 3.22 ± 0.2

Sequence: QLLEQKQAYWAQAEDTAAPAEESK [CBY2]
- protein stability index [1]: 5.01 ± 0.25
- protein stability index [2]: 4.96 ± 0.23

Sequence: GGFGGGDGGLLSGNEKITMQNLND [KRT15]
- protein stability index [1]: 4.76 ± 0.3
- protein stability index [2]: 4.88 ± 0.27

Sequence: RPLARPIKRGDILPPEKGREVAKE [RHOBTB1]
- protein stability index [1]: 5.17 ± 0.088
- protein stability index [2]: 4.97 ± 0.12

Sequence: AQDPDVGTNTVSFYTLSPNSHFSL [PCDHGC5]
- protein stability index [1]: 2.57 ± 0.26
- protein stability index [2]: 2.61 ± 0.3

Sequence: YPEQSKGFHKAGSMLPPVNFSIVP [SPATS1]
- protein stability index [1]: 2.65 ± 0.5
- protein stability index [2]: 3.06 ± 0.69

Sequence: RGVHCWVCDESVRKLSSAVRSGIV [PRIM1]
- protein stability index [1]: 2.24 ± 0.22
- protein stability index [2]: 2.19 ± 0.14
